Experiments:
CXCR4 homodimer = target: T1, CXCR4 homodimer (Homo sapiens, UniProt P61073); assay: BRET on HEK293 cells expressing CXCR4/Rluc+CXCR4/YFP; format: cell-based
T1 construct: expressed in transfected cells; host or cells: HEK293, transient transfection
Description: This functional assay allows to evaluate the conformational changes induced upon SDF-1 and/or 515H7 Mab binding to CXCR4 receptor at the level of CXCR4 homodimer.
(§1) Expression vectors for the investigated interaction partners were constructed as fusion proteins with the corresponding dye (Renilla reniformis luciferase, Rluc and Yellow fluorescent protein, YFP) by applying conventional molecular biology techniques. Two days prior performing BRET experiments, HEK293 cells were transiently transfected with expression vectors coding for the corresponding BRET partners: [CXCR4/Rluc+CXCR4/YFP] to study CXCR4 homodimerization. The day after, cells were distributed in poly-lysine pre-coated white 96 MW plates in complete culture medium [DMEM supplemented with 10% FBS]. Cells were first cultivated at 37° C. with CO2 5% in order to allow cell attachment to the plate. Cells were then starved with 200 μl DMEM/well overnight Immediately prior to the BRET experiment, DMEM was removed and cells were quickly washed with PBS. Cells were then incubated in PBS in the presence or absence of antibody, 10 min at 37° C. prior to the addition of coelenterazine H 5 μM with or without SDF-1 300 nM in a final volume of 50 μl. After incubation for further 10 minutes at 37° C., light-emission acquisition at 485 nm and 530 nm was initiated using the Mithras LB940 multilabel reader (Berthold) (1 s/wavelength/well repeated 15 times at room temperature).
Calculation of BRET ratio was performed as previously described (Angers et al., 2000): [(emission530 nm)−(emission485 nm)×Cf]/(emission485 nm), where Cf=(emission530 nm)/(emission485 nm) for cells expressing the Rluc fusion protein alone under the same experimental conditions. […] For sake of readability, results are expressed in mi11iBRET units (mBU); mBU corresponds to the BRET ratio multiplied by 1000.
This functional assay allows to evaluate the conformational changes induced upon SDF-1 and/or c515H7 Mab binding to CXCR4 receptor at the level of CXCR4 homodimer.
as §1, with “Cells were then incubated in PBS in the presence or absence of antibody, 10 min at 37° C. prior to the addition of coelenterazine H 5 μM with or without SDF-1 300 nM in a final volume of 50 μl.” left out
Calculation of BRET ratio was performed as previously described (Angers et al., 2000): [(emission530 nm)−(emission485 nm)×Cf]/(emission485 nm), where Cf=(emission530 nm)/(emission485 nm) for cells expressing the Rluc fusion protein alone under the same experimental conditions. […] For sake of readability, results are expressed in milliBRET units (mBU); mBU corresponds to the BRET ratio multiplied by 1000. […]

human CXCR4 [1] = target: T2, human CXCR4 (Homo sapiens, UniProt P61073); assay: SDF-1-induced calcium release in CHO-CXCR4 cells; format: cell-based; parameters: expressed in transfected cells; conditions: SDF-1 100 nM, recombinant CHO/CXCR4, at about 40 sec.
T2 sequence (P61073 whole entry): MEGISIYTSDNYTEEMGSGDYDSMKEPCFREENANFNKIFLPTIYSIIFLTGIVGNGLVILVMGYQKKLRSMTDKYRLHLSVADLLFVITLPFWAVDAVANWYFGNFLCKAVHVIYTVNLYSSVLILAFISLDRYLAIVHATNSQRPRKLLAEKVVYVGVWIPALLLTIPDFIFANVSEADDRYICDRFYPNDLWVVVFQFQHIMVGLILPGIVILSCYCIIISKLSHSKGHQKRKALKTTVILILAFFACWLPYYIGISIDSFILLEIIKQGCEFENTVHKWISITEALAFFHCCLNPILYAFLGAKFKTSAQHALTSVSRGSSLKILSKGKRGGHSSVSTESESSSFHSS
Description: This functional assay was designed to monitor CXCR4 receptor signaling via stimulation of the phospholipase C pathway, inducing calcium liberation from intracellular stores from the endoplasmic reticulum.
CHO-K1 cells, stably and constitutively expressing human CXCR4 receptor were obtained upon transfection of naïve CHO-K1 cells (ATCC CCL-61) with a mammalian expression vector carrying the whole coding sequence of human CXCR4 receptor (RefSeq NM_003467). Cells were propagated in complete culture medium [DMEM-Ham's F12 supplemented with 5% fetal calf serum (FCS) and 500 μg/ml of geneticin]. Cells were plated in black 96MW plates at a density of 100,000 cells/well in appropriate culture medium. Cells were starved overnight before conducting the experiments. Cells are loaded with the fluorescent calcium dye (Fluo-4 No Wash, Invitrogen US) in loading buffer [HBSS 1×, HEPES 20 mM, Probenicid acid 25 mM] for 30 min. at 37° C. followed by 30 min. at 25° C. Stimulation by SDF-1 was performed by direct injection into each well. For antagonism experiments, 10 μl of Mab solution are added directly into the loading buffer at least 10 min. before SDF-1. Kinetic fluorescence measurements are performed on a multi-mode fluorescence microplate reader Mithras LB940 (Berthold) using the following settings: excitation at 485 nm, emission at 535 nm, excitation energy at 10000 arbitrary units. Fluorescence in each well is recorded during 0.1 second every second and for a time period of 20 sec. prior SDF-1 injection (basal signal). Then 20 μl of SDF-1 are injected and data recording follows for a time period of 2 min. Each experimental condition is performed in duplicate. Values for each well are first corrected by subtracting the basal fluorescence and the fluorescence emitted by a control well without cells. Relative data are expressed as a percentage of the maximal stimulation obtained by SDF-1 (100 nM).

[2] = tested on: HIV-1 primary isolate 89.6 (dual X4/R5 virus); assay: Neutralization assay, multiple rounds of replication on primary PBMC, isolate 89.6; format: cell-based; conditions: single agent; 90% decrease of viral titer, multiple rounds, day 7 p24 ELISA
Description: This assay that combines serial dilutions of c515H7 Mab or Maraviroc or combination of both with serial dilutions of virus, analyzes multiple rounds of infection on PBMC (peripheral blood mononuclear cells). Briefly, quadruplicate 25-μl aliquots of serial dilutions (twofold) of c515H7 Mabs or Maraviroc or combination of both were each incubated with 25 μl of serial dilutions of virus in prehydrated 96-well filter plates (1.25-μm pore size, Durapor Dv; Millipore, Molsheim, France). A control titration of the virus (25 μl of RPMI replacing the diluted c515H7 Mabs or Maraviroc) was performed on the same plate as the titrations in the presence of dilutions of the c515H7 Mabs or Maraviroc or combination of both. After 1 h at 37° C., 25 μl of PHA-stimulated PBMC at a concentration of 4×10^6 cells/ml (pool of PHA activated PBMC from five healthy donors) was added to achieve a 75-μl final culture volume of RPMI, 10% fetal calf serum (FCS), and 20 IU of interleukin-2 (IL-2) per ml (R&D System). After 24 h at 37° C., 100 μl of the same culture medium was added. Two washings (200 μl of RPMI each) were performed by filtration on day 4 to remove the c515H7 Mabs and Maraviroc, and 200 μl of fresh culture medium was added. On day 7, the presence of p24 in the culture supernatants was measured by ELISA and compared to that of the negative controls (cultures infected with dilutions of virus and maintained in the presence of 10^−6 M zidovudine [AZT]) to determine positive wells. […]
This assay that combines serial dilutions of hz515H7 Mab or Maraviroc or combination of both with serial dilutions of virus, analyzes multiple rounds of infection on PBMC (peripheral blood mononuclear cells). […] On day 7, the presence of p24 in the culture supernatants was measured by ELISA and compared to that of the negative controls (cultures infected with dilutions of virus and maintained in the presence of 10^−6 M zidovudine [AZT]) to determine positive wells. […]

human CXCR4 [3] = target: T2, human CXCR4; assay: Cross blocking of biotinylated murine 515H7 on CXCR4 transfected NIH3T3 cells, flow cytometry; format: binding; parameters: expressed in transfected cells; host or cells: NIH3T3 (mouse fibroblasts)
Description: FIG. 19: Cross blocking of the biotinylated murine antibody 515H7 by the chimeric 515H7 and different variants of the humanized 515H7. The activity of the humanized variants of 515H7 (hz515H7) to cross block the parental murine antibody 515H7 was evaluated by flow cytometry using CXCR4 transfected NIH3T3 cells. The activity of the humanized variants was compared to the chimeric 515H7.
Binding of humanized variants of 515H7 was determined on a NIH3T3 cell line stably transfected with human CXCR4. The binding activity was evaluated by a competition assay with the biotinylated mouse antibody. In a second attempt, humanized antibodies were evaluated for their ability to inhibit binding of biotinylated SDF-1 to RAMOS cells. RAMOS cells were chosen because of their high expression of CXCR4 and low expression of CXCR7 and SDF-1.
In a first series of experiments, the anti-CXCR4 binding activities of the three first humanized variants were analysed. The VH variant 1 (VH1) was combined with the murine VL and these constructs were evaluated in their capacity to inhibit the binding of a biotinylated murine 515H7 parental antibody. The amino acid sequence of the variable domain of VH1 comprises the SEQ ID No. 90 whereas the nucleotide sequence comprises the SEQ ID No. 91. […]

T1 sequence (P61073 whole entry): as above
T1 sequence (P61073 whole entry): as above

SDF-1: Stromal-cell-Derived Factor-1, the natural ligand of CXCR4 [reference compound]
increase of BRET signal (CXCR4 homodimer; SDF-1 300 nM): about 20% | maximal intensity of calcium signal (human CXCR4 [1]): > 140 % over basal fluorescence

Maraviroc [reference compound]
IC90 [2]: > 50 µg/mL

B1: hz515H7 VH1 VL2: humanized VH variant 1 (no back mutations) combined with variant 2 of VL (antibody, V domains shown)
VH: EVQLVESGGGLVQPGRSLRLSCTASGFTFTDNYMSWVRQAPGKGLEWVGFIRNKANGYTTEYAASVKGRFTISRDDSKSIAYLQMNSLKTEDTAVYYCARDVGSNYFDYWGQGTLVTVSS
VL: DIVMTQSPSSLAVSLGERATMSCKSSQSLFNSRTRKNYLAWYQQKPGQSPKLLIYWASARDSGVPARFTGSGSETYFTLTISRVQAEDLAVYYCMQSFNLRTFGQGTKVEIK
cross blocking of biotinylated murine 515H7, compared to chimeric 515H7 (human CXCR4 [3]): No reduction in the activity

B2: hz515H7 VH1 D76N VL2: humanized 515H7 Mab; variable domains VH1 D76N (SEQ ID No. 64) and VL2 (SEQ ID No. 65) (antibody, listed as Mus musculus, V domains shown)
VH: EVQLVESGGGLVQPGRSLRLSCTASGFTFTDNYMSWVRQAPGKGLEWVGFIRNKANGYTTEYAASVKGRFTISRDNSKSIAYLQMNSLKTEDTAVYYCARDVGSNYFDYWGQGTLVTVSS
VL: DIVMTQSPSSLAVSLGERATMSCKSSQSLFNSRTRKNYLAWYQQKPGQSPKLLIYWASARDSGVPARFTGSGSETYFTLTISRVQAEDLAVYYCMQSFNLRTFGQGTKVEIK
inhibition of SDF-1-induced BRET increase (CXCR4 homodimer; SDF-1 100 nM): about 88%
